The target in data set [1] is T1, BANP BEN WT (human) (UniProt Q8N9N5).
T1 sequence: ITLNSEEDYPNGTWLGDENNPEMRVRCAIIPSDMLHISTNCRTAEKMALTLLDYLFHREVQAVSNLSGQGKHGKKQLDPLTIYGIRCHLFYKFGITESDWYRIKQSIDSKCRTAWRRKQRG
The data set is described as follows: ITC. As to conditions: 5-methyl-C at positions 5 and 7 of each strand (fully methylated); ITC: 20 mM Tris pH 7.5, 200 mM NaCl, 2 mM beta-mercaptoethanol, 20 C; EMSA: 20 mM Tris pH 7.0, 200 mM NaCl, 2 mM DTT, 4 C, 1.2% agarose in TAE. In general terms: A gel shift assay detects complexes by their altered migration in electrophoresis.

Data set [2] deals with T2, BANP CC-BEN (ΔDBD) (human, UniProt Q8N9N5 1-360).
T2 sequence: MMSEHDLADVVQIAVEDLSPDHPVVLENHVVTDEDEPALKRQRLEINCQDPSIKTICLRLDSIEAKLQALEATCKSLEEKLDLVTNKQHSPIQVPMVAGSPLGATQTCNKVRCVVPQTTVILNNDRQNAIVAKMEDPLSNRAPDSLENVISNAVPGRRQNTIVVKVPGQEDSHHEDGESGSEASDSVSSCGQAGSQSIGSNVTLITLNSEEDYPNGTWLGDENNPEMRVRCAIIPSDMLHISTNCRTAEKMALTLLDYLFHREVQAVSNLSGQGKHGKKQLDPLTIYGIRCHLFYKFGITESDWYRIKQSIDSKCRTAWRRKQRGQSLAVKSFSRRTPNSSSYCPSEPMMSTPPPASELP
The data set is described as follows: ITC; ITC: 20 mM Tris pH 7.5, 200 mM NaCl, 2 mM beta-mercaptoethanol, 20 C; EMSA: 20 mM Tris pH 7.0, 200 mM NaCl, 2 mM DTT, 4 C, 1.2% agarose in TAE. As to conditions: protein: recombinant; tags: His-SUMO or His-MBP, cleaved; blunt, self-complementary. (In ITC the heat of successive injections is recorded.)

Data set [3] deals with T3, BANP full-length WT (human, UniProt Q8N9N5 1-519).
T3 sequence: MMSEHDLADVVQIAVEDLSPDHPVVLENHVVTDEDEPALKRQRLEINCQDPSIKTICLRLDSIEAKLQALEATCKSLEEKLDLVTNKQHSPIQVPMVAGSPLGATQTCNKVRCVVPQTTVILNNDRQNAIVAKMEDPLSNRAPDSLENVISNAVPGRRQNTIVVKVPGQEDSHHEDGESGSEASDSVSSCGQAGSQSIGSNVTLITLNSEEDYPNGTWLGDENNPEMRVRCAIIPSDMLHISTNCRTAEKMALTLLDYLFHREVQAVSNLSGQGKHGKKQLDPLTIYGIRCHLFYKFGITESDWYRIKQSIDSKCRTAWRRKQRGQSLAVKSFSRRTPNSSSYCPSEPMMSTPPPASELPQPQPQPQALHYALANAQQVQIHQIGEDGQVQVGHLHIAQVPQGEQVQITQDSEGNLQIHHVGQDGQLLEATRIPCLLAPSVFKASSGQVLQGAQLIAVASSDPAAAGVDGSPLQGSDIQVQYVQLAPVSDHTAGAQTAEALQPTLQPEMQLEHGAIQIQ
The data set is described as above. The note with it: protein: recombinant; tags: His-SUMO or His-MBP, cleaved; chain copies: 4; blunt, self-complementary.

Data set [4] deals with T4, BANP ΔCC (human, UniProt Q8N9N5 90-519).
T4 sequence: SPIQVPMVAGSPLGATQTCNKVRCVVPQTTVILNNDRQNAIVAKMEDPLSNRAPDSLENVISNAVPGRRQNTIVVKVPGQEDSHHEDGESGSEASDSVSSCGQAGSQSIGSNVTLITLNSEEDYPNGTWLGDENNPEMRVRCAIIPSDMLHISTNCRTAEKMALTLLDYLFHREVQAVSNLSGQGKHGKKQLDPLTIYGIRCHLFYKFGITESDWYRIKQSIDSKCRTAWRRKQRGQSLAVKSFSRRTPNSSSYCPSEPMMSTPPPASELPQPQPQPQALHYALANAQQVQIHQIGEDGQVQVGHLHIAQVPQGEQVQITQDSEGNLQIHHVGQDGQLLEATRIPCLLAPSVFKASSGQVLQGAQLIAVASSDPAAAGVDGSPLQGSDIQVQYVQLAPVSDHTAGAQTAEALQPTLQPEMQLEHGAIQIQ
The description is as above. As to conditions: protein: recombinant; tags: His-SUMO or His-MBP, cleaved; blunt, self-complementary.

Data set [5] has as its target T5, BANP BEN-DBD (human, UniProt Q8N9N5 205-519).
T5 sequence: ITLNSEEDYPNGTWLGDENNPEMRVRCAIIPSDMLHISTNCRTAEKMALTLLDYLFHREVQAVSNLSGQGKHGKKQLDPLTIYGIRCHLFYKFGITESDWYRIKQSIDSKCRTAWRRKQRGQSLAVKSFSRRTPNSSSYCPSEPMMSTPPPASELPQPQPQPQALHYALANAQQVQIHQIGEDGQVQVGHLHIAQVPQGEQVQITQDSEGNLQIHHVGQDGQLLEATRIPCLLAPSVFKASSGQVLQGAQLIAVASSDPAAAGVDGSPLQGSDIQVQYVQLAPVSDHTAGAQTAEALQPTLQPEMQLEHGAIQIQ
Described as above. As to conditions: protein: recombinant; tags: His-SUMO or His-MBP, cleaved; blunt, self-complementary.

Data set [6] concerns the target T6, NACC1 BEN WT (human, UniProt Q96RE7 341-477).
T6 sequence: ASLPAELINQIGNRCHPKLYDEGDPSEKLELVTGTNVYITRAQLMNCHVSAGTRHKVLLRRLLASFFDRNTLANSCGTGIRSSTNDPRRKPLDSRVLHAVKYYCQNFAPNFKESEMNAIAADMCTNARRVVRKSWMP
The data set is described as follows: crystal structure; 2.3 A; PDB assignment from column order; ITC: 20 mM Tris pH 7.5, 200 mM NaCl, 2 mM beta-mercaptoethanol, 20 C; EMSA: 20 mM Tris pH 7.0, 200 mM NaCl, 2 mM DTT, 4 C, 1.2% agarose in TAE. The note with it: protein: recombinant; tags: His-SUMO or His-MBP, cleaved; 10 bp, 5' overhang 1 nt (T) each strand.

Data set [7] deals with T7, BANP BEN WT (human, UniProt Q8N9N5 205-325).
T7 sequence: T1 sequence
Description: crystal structure; 2.6 A; PDB assignment from column order; ITC: 20 mM Tris pH 7.5, 200 mM NaCl, 2 mM beta-mercaptoethanol, 20 C; EMSA: 20 mM Tris pH 7.0, 200 mM NaCl, 2 mM DTT, 4 C, 1.2% agarose in TAE. The note with it: protein: recombinant; tags: His-SUMO or His-MBP, cleaved; chain copies: 2; 12 bp, 5' overhang 1 nt (C) each strand.

Data set [8] deals with the molecule itself. The data set is described as follows: cross-linking; purified full-length BANP in 20 mM HEPES pH 7.5, 200 mM NaCl, 2 mM DTT; 0.06% glutaraldehyde, on ice 10 min, quenched with Tris; then Superdex 200 10/300 GL and SDS-PAGE of the fractions.
In data set [9] the target is T7, BANP BEN WT. The data set is described as follows: EMSA; ITC: 20 mM Tris pH 7.5, 200 mM NaCl, 2 mM beta-mercaptoethanol, 20 C; EMSA: 20 mM Tris pH 7.0, 200 mM NaCl, 2 mM DTT, 4 C, 1.2% agarose in TAE. The note with it: protein: recombinant; tags: His-SUMO or His-MBP, cleaved; chain copies: 2; blunt.
Data set [10] addresses T6, NACC1 BEN WT. The description is as above. The note with it: protein: recombinant; tags: His-SUMO or His-MBP, cleaved; blunt.

Broadly, the Kd is the equilibrium constant for the complex coming apart. Higher therefore signals weaker binding. A word on the stoichiometry N: it is the number of molecules, sites or subunits per partner or assembly.

Consider “ATCTCGCGAGAT (double strand) [12-mCGmCG]”, for which, in [1], the Kd was 5.7 µM.

B1: 12-mCGmCG (dsDNA)
DNA 1: ATCTCGCGAGAT
DNA 2: ATCTCGCGAGAT
modifications: 5-methyl-C at positions 5 and 7 of each strand (fully methylated)
Turning to B1, the binding result in data set [2], in data set [3], in [4] and in data set [5] was “no binding” throughout.

B2: NACC1 crystal DNA (dsDNA)
DNA 1: TTTACATGTAA
DNA 2: TTTACATGTAA
As to B2, the binding result in data set [6] is “binds”.

B3: BANP crystal DNA (dsDNA)
DNA 1: CATCTCGCGAGAT
DNA 2: CATCTCGCGAGAT
In the case of B3, the binding result in data set [7] was “binds”.

B4: full-length BANP (natural protein, human, UniProt Q8N9N5 1-519, looked up)
chain: T3 sequence
notes: BANP, human, full length; also called SMAR1; source: E. coli Rosetta (DE3), purified (nickel column, HiTrap Q, gel filtration)
As for B4, the “stoichiometry N” value in [8] came out at 4.

B5: 12-AT (dsDNA)
DNA 1: TTTTATATATAA
DNA 2: TTATATATAAAA
As for B5, the binding result in [9] and in data set [10] was “no binding” in each case.

Values taken from PMC11472053, “Structural basis of DNA recognition by BEN domain proteins reveals a role for oligomerization in unmethylated DNA selection by BANP” (Nucleic Acids Research, 2024).
